Experimental data taken from the supplement of paper PMC9732359.
± gives the uncertainty stated by the source.

Assay: protein stability index of a GFP-peptide fusion (yeast GPS) (PSI 1-4); higher = more stable; sorted into four equal gates, so the index is relative within each strain
Settings: san1∆
In short: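 Tiled yeast protein peptides of 17 residues were each joined downstream of GFP, on plasmids that also express Cherry. The pooled library was maintained in yeast, and mid-log cultures in leucine-free medium were sorted into four equal gates on the GFP/Cherry ratio. Plasmids from every gate were amplified by PCR and sequenced on Illumina, with barcodes linking reads to strains. The protein stability index of a peptide is its gate-number-weighted read frequency summed over the gates.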

**Q.** For QSEHLEAVVDQDVQRTC [FAS1], which protein stability index is on record?
**A.** 3.49 ± 0.094

Same assay, conditions: ubr1∆

**Q.** Which protein stability index does the source give for PSQGVHYKVPTDTSTTA [MED6] here?
**A.** 2.76 ± 0.037

**Q.** For PSSQSQNDTPMFKLGNF [YLR018C/POM34], which protein stability index is on record?
**A.** 2.6 ± 0.028

**Q.** Which protein stability index does the source give for PSTGFKFSLPFEQKGSQ [YLR335W/NUP2] here?
**A.** 2.96 ± 0.096

**Q.** With PSYTHVLISKLSCEKIT [RRI1] as the sequence, how does the protein stability index read?
**A.** 1.98 ± 0.035

**Q.** With PTDDKTLKPTFSFTEPA [YOR098C/NUP1] as the sequence, how does the protein stability index read?
**A.** 3.07 ± 0.042

**Q.** Which protein stability index does the source give for PTHYKIPAWFLNRQNDI [RPS18A] here?
**A.** 1.75 ± 0.046

**Q.** For PTIRSNAVLGLGDMAVC [YCS4], which protein stability index is on record?
**A.** 1.71 ± 0.099

**Q.** Which protein stability index does the source give for PTQTVAELDLMSGILHC [RPN6] here?
**A.** 3.1 ± 0.051

**Q.** Which protein stability index does the source give for PTSDEPVPESAGKADTS [SRB4] here?
**A.** 3.07 ± 0.045

**Q.** For PTTNEPAKPALSFGTAT [YJL041W/NSP1], which protein stability index is on record?
**A.** 3.12 ± 0.042

**Q.** For PVGRELDPISLILIPGE [RPN13], which protein stability index is on record?
**A.** 3.23 ± 0.098

**Q.** Which protein stability index does the source give for PVIGVFQKFLTGHPKGA [FAS2] here?
**A.** 3.52 ± 0.24

**Q.** For PVLKKKAAFLGSEVRLR [COR1], which protein stability index is on record?
**A.** 3.3 ± 0.078

**Q.** Which protein stability index does the source give for PVQIVKRITQITIEPGV [RPS20] here?
**A.** 1.65 ± 0.12

**Q.** Which protein stability index does the source give for PVQSKFGRKKRKGGPAT [RPT2] here?
**A.** 3.22 ± 0.16

**Q.** Which protein stability index does the source give for PWCVKPEYLAMYGLTME [ITC1] here?
**A.** 2.07 ± 0.073

**Q.** With PWYNNPVSCIIQNDEEY [PRP8] as the sequence, how does the protein stability index read?
**A.** 1.05 ± 0.12

**Q.** For PYAIIKGKARLGTLVNQ [RPL8B], which protein stability index is on record?
**A.** 2 ± 0.053

**Q.** For PYLLETYANVLIPCKYL [RPN7], which protein stability index is on record?
**A.** 1.18 ± 0.062

**Q.** Which protein stability index does the source give for PYSKNAVEQLAGCKIDN [YDL088C/ASM4] here?
**A.** 2.56 ± 0.047

**Q.** For QAAGGLSIRLTNQLKSL [RPN8], which protein stability index is on record?
**A.** 2.19 ± 0.06

**Q.** For QALIHGLNRHYYSLNID [RPN11], which protein stability index is on record?
**A.** 2.42 ± 0.068

**Q.** For QANPTEESISKFPDMGS [RPB5], which protein stability index is on record?
**A.** 3.26 ± 0.087

**Q.** Which protein stability index does the source give for QAYEEIISSNENALIEL [YIL149C/MLP2] here?
**A.** 3.23 ± 0.042

**Q.** For QAYQFLNTFGSKICLSH [ITC1], which protein stability index is on record?
**A.** 1.42 ± 0.054

**Q.** For QDDDFPLDDAGTIGWDL [MCD1], which protein stability index is on record?
**A.** 3.06 ± 0.068

**Q.** For QDVLQMLGRAGRPRYDT [BRR2], which protein stability index is on record?
**A.** 2.81 ± 0.28

**Q.** For QEAIQQNRRLAFEELEG [PRP8], which protein stability index is on record?
**A.** 2.75 ± 0.12

**Q.** With QEDFEVVEEFTPVVLAT [RPS5] as the sequence, how does the protein stability index read?
**A.** 2.31 ± 0.042

**Q.** Which protein stability index does the source give for QEGKISSVYRLKFAVQV [RPL26A] here?
**A.** 3.76 ± 0.12

**Q.** With QEGLITTTMLQLFSTFD [SSN2] as the sequence, how does the protein stability index read?
**A.** 2.61 ± 0.034

**Q.** For QELRKKVNPNIMNMIEN [SMC2], which protein stability index is on record?
**A.** 2.47 ± 0.062

**Q.** With QESLLSRTFDKYSKLVD [SRP72] as the sequence, how does the protein stability index read?
**A.** 2.7 ± 0.04

**Q.** Which protein stability index does the source give for QETQHGNITRGLAVGLA [RPN2] here?
**A.** 2.88 ± 0.04

**Q.** Which protein stability index does the source give for QFAPAFLNTPNNNINEN [SSN2] here?
**A.** 2.89 ± 0.06

**Q.** Which protein stability index does the source give for QFASPVRWIETQDVFLK [FAS2] here?
**A.** 2.195 ± 0.018

**Q.** With QFEIPISDDDDSALRYS [POP4] as the sequence, how does the protein stability index read?
**A.** 3.16 ± 0.038

**Q.** Which protein stability index does the source give for QFISSRQFEVKQLQLAM [POP1] here?
**A.** 1.74 ± 0.037

**Q.** For QFNAITGLNGSGKSNIL [SMC2], which protein stability index is on record?
**A.** 3.34 ± 0.067

**Q.** With QFNATINPESREIVMPA [ITC1] as the sequence, how does the protein stability index read?
**A.** 1.14 ± 0.19

**Q.** With QFPEIAYPGKLICPQYG [CSL4] as the sequence, how does the protein stability index read?
**A.** 2.17 ± 0.053

**Q.** Which protein stability index does the source give for QGIFKNSSNYFGELQFA [AAR2] here?
**A.** 2.11 ± 0.12

**Q.** With QGITRNVVNYLSINKNF [RPC17] as the sequence, how does the protein stability index read?
**A.** 1.52 ± 0.038

**Q.** For QHGFEVQVGPMKVFVTK [RPB7], which protein stability index is on record?
**A.** 2.52 ± 0.09

**Q.** With QHIYPSSTPGVANYSAM [GAL11] as the sequence, how does the protein stability index read?
**A.** 2.81 ± 0.14

**Q.** With QHLQQLKMQQQQQQQQQ [GAL11] as the sequence, how does the protein stability index read?
**A.** 2.09 ± 0.061

**Q.** Which protein stability index does the source give for QHLRNEHGMNAPSVPEF [SNF2] here?
**A.** 3.09 ± 0.061

**Q.** With QHQSLSRSSSKNVNIED [ESC2] as the sequence, how does the protein stability index read?
**A.** 3.04 ± 0.084

**Q.** With QIEKKEIKKMIITNINA [YCG1] as the sequence, how does the protein stability index read?
**A.** 2.47 ± 0.15

**Q.** Which protein stability index does the source give for QIEKKKICRGRMNTIIT [SIR4] here?
**A.** 2.63 ± 0.27

**Q.** With QIIQRDKINKYSLIRET [SNF5] as the sequence, how does the protein stability index read?
**A.** 1.15 ± 0.2

**Q.** For QIISGNRVPDGFQDRSL [RPO31], which protein stability index is on record?
**A.** 3.38 ± 0.2
